One substance from patent publication US20080085266A1 can be followed below.

The target of this assay is ICAM-1 (human) (UniProt P05362). Description: cell-based or functional assay.
ICAM-1 (human), sequence (P05362 28-532): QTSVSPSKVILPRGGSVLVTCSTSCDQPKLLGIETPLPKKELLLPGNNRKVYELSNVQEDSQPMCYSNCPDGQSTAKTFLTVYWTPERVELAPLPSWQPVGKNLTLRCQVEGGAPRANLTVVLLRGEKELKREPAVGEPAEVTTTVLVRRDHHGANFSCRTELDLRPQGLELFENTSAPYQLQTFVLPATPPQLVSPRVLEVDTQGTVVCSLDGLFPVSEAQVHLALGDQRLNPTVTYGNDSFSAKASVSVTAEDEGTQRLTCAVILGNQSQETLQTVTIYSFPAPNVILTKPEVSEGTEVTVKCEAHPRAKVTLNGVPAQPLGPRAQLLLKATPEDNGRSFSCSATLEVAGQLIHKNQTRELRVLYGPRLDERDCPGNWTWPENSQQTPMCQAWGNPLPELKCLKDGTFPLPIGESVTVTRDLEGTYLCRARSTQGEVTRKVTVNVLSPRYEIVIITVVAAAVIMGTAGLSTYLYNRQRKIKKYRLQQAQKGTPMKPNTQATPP

“CD11a (LFA-1) (from UniProt P20701 26-1170) (receptor)” showed an inhibition of tumor lysis by peptide specific CTLs with anti-CD11a (LFA-1) MAb, tumor cells after IFN-gamma exposure of 60 to 86%.
